Results: article PMC8674125, “Analysis of Il36a induction by C/EBPβ via a half-CRE•C/EBP element in murine macrophages in dependence of its CpG methylation level”

Target: C/EBPβ bZIP domain (mouse, UniProt P28033 221-296)
Test: fluorescence polarization; FP: 5 nM DNA, 20 mM Tris-HCl pH 7.5, 150 mM NaCl, 5% glycerol, 0.5 mM TCEP, 0.1 mg/ml BSA, 30 min, temperature not stated; EMSA conditions as in earlier work, not given
Details: protein: recombinant; tags: N-terminal 6xHis (pET-45b); chain copies: 2; label: 5'-FAM on strand 1; blunt

Sequence of C/EBPβ bZIP domain (P28033 221-296): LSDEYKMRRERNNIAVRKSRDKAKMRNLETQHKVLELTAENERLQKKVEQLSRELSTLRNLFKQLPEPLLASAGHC

| Binder | Kd [nM] |
| --- | --- |
| FP_CREB (unmethylated half-CRE•C/EBP Il36a) (dsDNA) DNA 1: CATCTTACGTCACCT DNA 2: AGGTGACGTAAGATG | 80 ± 30 |
| FP_CREBmeth (methylated half-CRE•C/EBP Il36a) (dsDNA, 5-methyl-C (mC) at position 8 of strand 1 and position 7 of strand 2) DNA 1: CATCTTACGTCACCT DNA 2: AGGTGACGTAAGATG | 100 ± 30 |
